Publication PMC9482650, “Quantitative fragmentomics allow affinity mapping of interactomes” (Nature Communications, 2022)

T1: DFNB31_3, Q9P202
T1 sequence (Q9P202 811-907, limits assumed, looked up): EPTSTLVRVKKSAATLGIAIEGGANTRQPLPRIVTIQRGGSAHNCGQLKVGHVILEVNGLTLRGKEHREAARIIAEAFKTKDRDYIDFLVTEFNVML

T2: SHANK1, Q9Y566
T2 sequence (Q9Y566 658-767, limits assumed, looked up): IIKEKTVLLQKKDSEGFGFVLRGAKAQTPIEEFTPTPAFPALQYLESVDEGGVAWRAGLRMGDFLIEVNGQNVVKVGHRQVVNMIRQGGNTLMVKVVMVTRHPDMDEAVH

T3: MPP2, Q14168
T3 sequence (Q14168 180-250, limits assumed, looked up): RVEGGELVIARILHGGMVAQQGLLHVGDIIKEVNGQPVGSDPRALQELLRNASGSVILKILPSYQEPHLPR

T4: MPDZ_12, O75970
T4 sequence (O75970 1857-1958, limits assumed, looked up): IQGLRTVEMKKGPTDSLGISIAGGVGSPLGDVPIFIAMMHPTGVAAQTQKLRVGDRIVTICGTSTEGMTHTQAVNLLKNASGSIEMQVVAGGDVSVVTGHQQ

T5: PDZD7_3, Q9H5P4
T5 sequence (Q9H5P4 857-944, limits assumed, looked up): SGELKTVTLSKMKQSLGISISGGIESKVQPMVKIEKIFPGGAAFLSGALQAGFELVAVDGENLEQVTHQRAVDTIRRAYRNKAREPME

T6: MPP6, Q9NZW5
T6 sequence (Q9NZW5 125-219, limits assumed, looked up): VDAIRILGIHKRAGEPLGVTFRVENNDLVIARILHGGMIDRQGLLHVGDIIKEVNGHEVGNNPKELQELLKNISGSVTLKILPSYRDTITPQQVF

T7: DFNB31_1, Q9P202
T7 sequence (Q9P202 135-233, limits assumed, looked up): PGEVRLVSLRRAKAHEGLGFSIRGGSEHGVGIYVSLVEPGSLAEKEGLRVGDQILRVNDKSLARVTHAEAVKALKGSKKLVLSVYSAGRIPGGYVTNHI

T8: DLG3_3, Q92796
T8 sequence (Q92796 374-475, limits assumed, looked up): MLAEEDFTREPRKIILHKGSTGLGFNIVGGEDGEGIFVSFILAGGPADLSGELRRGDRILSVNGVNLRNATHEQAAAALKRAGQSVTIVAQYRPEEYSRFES

T9: APBA3_1, O96018
T9 sequence (O96018 389-490, limits assumed, looked up): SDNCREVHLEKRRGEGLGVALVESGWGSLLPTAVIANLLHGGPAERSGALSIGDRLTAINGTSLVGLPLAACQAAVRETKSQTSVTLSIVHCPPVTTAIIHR

T10: LNX2_2, Q8N448
T10 sequence (Q8N448 334-432, limits assumed, looked up): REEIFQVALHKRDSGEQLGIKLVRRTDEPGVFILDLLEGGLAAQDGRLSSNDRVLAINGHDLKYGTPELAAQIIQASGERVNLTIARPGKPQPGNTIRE

B1: JAM2, P57087 (peptide)
chain: DFKHTKSFII
B2: KIT, P10721 (peptide)
chain: SQPLLVHDDV
B3: JAM1, Q9Y624 (peptide)
chain: EFKQTSSFLV

How the values were obtained:
Test in all cases: holdup assay
Design in all cases: key: below the threshold = too weak to quantify, mostly under pKd 3.1 to 4
Conditions in all cases: plain residues with an end cap or a label only (N-terminal biotin on a linker: ado-ado)
[1] = target: GRIP2_4, Q9C0E4
[2] = target: T1, DFNB31_3, Q9P202
[3] = target: T2, SHANK1, Q9Y566
[4] = target: T3, MPP2, Q14168
[5] = target: T4, MPDZ_12, O75970
[6] = target: MAGI2_6, Q86UL8
[7] = target: IL16_3, Q14005
[8] = target: T5, PDZD7_3, Q9H5P4
[9] = target: FRMPD3, Q5JV73
[10] = target: SCRIB_3, Q14160
[11] = target: TJP1_3, Q07157
[12] = target: T6, MPP6, Q9NZW5
[13] = target: GRIP2_3, Q9C0E4
[14] = target: MAGI2_4, Q86UL8
[15] = target: GRIP2_5, Q9C0E4
[16] = target: Inadl_8, Q8NI35
[17] = target: LDB3, O75112
[18] = target: T7, DFNB31_1, Q9P202
[19] = target: T8, DLG3_3, Q92796
[20] = target: MAGI3_2, Q5TCQ9
[21] = target: Inadl_1, Q8NI35
[22] = target: T9, APBA3_1, O96018
[23] = target: DLG4_2, P78352
[24] = target: GRIP2_6, Q9C0E4
[25] = target: DLG4_1, P78352
[26] = target: PTPN3, P26045
[27] = target: T10, LNX2_2, Q8N448
[28] = target: CASK, O14936
[29] = target: LIMK2, P53671
Chain of LIMK2, P53671 (P53671 143-248): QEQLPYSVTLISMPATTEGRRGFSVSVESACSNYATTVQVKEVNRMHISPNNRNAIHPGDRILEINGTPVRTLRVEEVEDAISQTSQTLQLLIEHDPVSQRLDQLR

Chain of LDB3, O75112 (O75112 1-94): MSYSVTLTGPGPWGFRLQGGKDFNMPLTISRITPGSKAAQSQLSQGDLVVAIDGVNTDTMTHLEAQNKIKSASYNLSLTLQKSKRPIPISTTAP
Chain of MAGI2_6, Q86UL8 (Q86UL8 1141-1229): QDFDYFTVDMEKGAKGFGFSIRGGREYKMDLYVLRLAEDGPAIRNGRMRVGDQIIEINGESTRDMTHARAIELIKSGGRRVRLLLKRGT
Chain of CASK, O14936 (O14936 487-570): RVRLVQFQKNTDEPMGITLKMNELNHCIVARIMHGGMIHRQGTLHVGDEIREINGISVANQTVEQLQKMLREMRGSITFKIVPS
Chain of GRIP2_3, Q9C0E4 (Q9C0E4 238-339): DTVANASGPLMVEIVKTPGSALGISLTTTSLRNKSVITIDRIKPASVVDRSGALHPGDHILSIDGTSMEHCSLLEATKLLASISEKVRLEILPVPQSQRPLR
Chain of GRIP2_5, Q9C0E4 (Q9C0E4 544-642): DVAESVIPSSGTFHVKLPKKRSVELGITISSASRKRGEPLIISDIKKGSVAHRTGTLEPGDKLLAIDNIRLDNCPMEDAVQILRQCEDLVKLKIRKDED
Chain of DLG4_2, P78352 (P78352 155-259): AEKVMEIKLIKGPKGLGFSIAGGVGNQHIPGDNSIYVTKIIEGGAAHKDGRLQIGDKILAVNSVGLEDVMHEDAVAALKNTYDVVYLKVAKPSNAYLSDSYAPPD
Chain of PTPN3, P26045 (P26045 505-587): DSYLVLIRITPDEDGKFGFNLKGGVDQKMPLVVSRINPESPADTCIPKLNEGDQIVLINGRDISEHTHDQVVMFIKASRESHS
Chain of GRIP2_6, Q9C0E4 (Q9C0E4 648-740): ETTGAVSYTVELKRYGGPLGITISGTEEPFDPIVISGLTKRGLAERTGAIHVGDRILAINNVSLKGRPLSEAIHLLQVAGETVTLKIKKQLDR
Chain of MAGI3_2, Q5TCQ9 (Q5TCQ9 398-503): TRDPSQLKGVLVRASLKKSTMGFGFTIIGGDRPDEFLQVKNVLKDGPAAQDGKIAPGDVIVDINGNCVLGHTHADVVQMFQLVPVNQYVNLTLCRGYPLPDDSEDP
Chain of SCRIB_3, Q14160 (Q14160 999-1103): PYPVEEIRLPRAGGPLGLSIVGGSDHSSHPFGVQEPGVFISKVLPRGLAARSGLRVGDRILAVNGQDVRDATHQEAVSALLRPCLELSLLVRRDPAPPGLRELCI
Chain of FRMPD3, Q5JV73 (Q5JV73 12-100): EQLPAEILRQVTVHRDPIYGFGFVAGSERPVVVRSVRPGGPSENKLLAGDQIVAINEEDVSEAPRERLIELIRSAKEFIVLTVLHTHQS
Chain of TJP1_3, Q07157 (Q07157 416-512): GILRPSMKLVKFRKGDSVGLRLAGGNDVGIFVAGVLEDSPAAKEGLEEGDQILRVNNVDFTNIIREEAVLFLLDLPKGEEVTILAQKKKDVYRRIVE
Chain of IL16_3, Q14005 (Q14005 1107-1207): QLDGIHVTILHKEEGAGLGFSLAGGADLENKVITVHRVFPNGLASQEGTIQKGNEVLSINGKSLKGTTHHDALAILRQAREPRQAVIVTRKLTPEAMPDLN
Chain of GRIP2_4, Q9C0E4 (Q9C0E4 446-548): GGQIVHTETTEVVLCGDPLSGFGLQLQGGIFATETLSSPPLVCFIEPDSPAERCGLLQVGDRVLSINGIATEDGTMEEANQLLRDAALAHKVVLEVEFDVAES
Chain of Inadl_8, Q8NI35 (Q8NI35 1425-1530): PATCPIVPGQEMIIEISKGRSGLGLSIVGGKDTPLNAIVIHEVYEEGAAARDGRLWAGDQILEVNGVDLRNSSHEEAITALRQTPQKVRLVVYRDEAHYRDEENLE
Chain of MAGI2_4, Q86UL8 (Q86UL8 772-865): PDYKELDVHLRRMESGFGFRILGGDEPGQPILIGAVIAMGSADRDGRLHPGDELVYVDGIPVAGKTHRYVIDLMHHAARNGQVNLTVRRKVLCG
Chain of Inadl_1, Q8NI35 (Q8NI35 113-229): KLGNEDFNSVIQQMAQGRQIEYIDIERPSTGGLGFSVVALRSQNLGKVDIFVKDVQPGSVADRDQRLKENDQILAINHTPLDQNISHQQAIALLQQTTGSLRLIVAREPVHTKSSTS
Chain of DLG4_1, P78352 (P78352 62-152): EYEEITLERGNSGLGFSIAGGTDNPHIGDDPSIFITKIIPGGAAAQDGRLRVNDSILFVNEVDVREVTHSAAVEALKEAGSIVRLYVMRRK

Row | Binder | pKd [1] | pKd [2] | pKd [3] | pKd [4] | pKd [5] | pKd [6] | pKd [7] | pKd [8] | pKd [9] | pKd [10] | pKd [11] | pKd [12] | pKd [13] | pKd [14] | pKd [15] | pKd [16] | pKd [17] | pKd [18] | pKd [19] | pKd [20] | also measured
1 | B1 | below the threshold | 3.71 | below the threshold | below the threshold | below the threshold | below the threshold | below the threshold | below the threshold | below the threshold | 3.65 | below the threshold | below the threshold | below the threshold | below the threshold | below the threshold | below the threshold | below the threshold | below the threshold | below the threshold | below the threshold | pKd [21]: below the threshold; pKd [22]: below the threshold; pKd [23]: below the threshold; pKd [24]: 4.41; pKd [25]: below the threshold; pKd [26]: 3.81; pKd [27]: 4.7; pKd [28]: below the threshold; pKd [29]: below the threshold
2 | B2 | below the threshold | below the threshold | below the threshold | below the threshold | below the threshold | below the threshold | below the threshold | below the threshold | below the threshold | below the threshold | below the threshold | below the threshold | below the threshold | below the threshold | below the threshold | 4.94 | below the threshold | below the threshold | below the threshold | below the threshold | pKd [21]: below the threshold; pKd [22]: below the threshold; pKd [23]: below the threshold; pKd [24]: below the threshold; pKd [25]: below the threshold; pKd [26]: below the threshold; pKd [27]: below the threshold; pKd [28]: below the threshold; pKd [29]: below the threshold
3 | B3 | below the threshold | 3.93 | below the threshold | below the threshold | below the threshold | below the threshold | below the threshold | 4.03 | below the threshold | below the threshold | below the threshold | below the threshold | below the threshold | 4.3 | below the threshold | below the threshold | below the threshold | below the threshold | below the threshold | below the threshold | pKd [21]: below the threshold; pKd [22]: below the threshold; pKd [23]: 3.47; pKd [24]: 4.35; pKd [25]: below the threshold; pKd [26]: below the threshold; pKd [27]: 5.22; pKd [28]: below the threshold; pKd [29]: below the threshold
